Residues, ends and D or L forms follow the SMILES beside them. No end group written: not given here.
Tests used:
[1] = Isoelectric point (pI) of the peptides of Table 3; type: physicochemical
HSA [2] = molecular target: T1, HSA (Homo sapiens, UniProt P02768); assay: Kd of TMR-labeled peptide for HSA by fluorescence intensity difference and Hill's equation; type: binding; conditions: for suitability as linker peptide of the peptide for temperature determination (FIG. 8): classified by Kd for HSA, 500 μM or more = suitable
T1 construct: purchased Sigma-Aldrich Co. LLC
Description: Each of the resulting mixtures was subjected to measurement with a spectrophotofluorometer [product name: F-7000, manufactured by Hitachi High-Technologies Corporation] and the fluorescence intensity with an excitation wavelength of 540 nm and a fluorescence wavelength of 580 nm (hereinafter, referred to as “fluorescence intensity A”) was measured.
Each of the resulting mixtures was subjected to measurement with a spectrophotofluorometer [product name: F-7000, manufactured by Hitachi High-Technologies Corporation] and the fluorescence intensity with an excitation wavelength of 540 nm and a fluorescence wavelength of 580 nm (hereinafter, referred to as “fluorescence intensity B”) was measured.
Equation (I): Difference between fluorescence intensities=fluorescence intensity A−fluorescence intensity B (I)
A difference between the fluorescence intensities was determined in accordance with the above equation.

HSA [3] = molecular target: T1, HSA; assay: Hydrothermal treatment in the presence of HSA or serum, partition of peptide between supernatant and insoluble fraction (SDS-PAGE, fluorescence image); conditions: for band derived from the peptide in supernatant of hydrothermally-treated sample: SDS-PAGE fluorescence image
[4] = microwave hydrothermal treatment 160° C., in the presence of HSA
[5] = heat transfer 200° C. for 40 minutes, in the presence of HSA (300 or 600 μM), phosphate buffered saline

| Molecule | pI [1] | suitability as linker peptide of the peptide for temperature determination (FIG. 8) (HSA [2]) | also measured |
| --- | --- | --- | --- |
| CSCC[C@H](NC(=O)[C@H](CO)NC(=O)[C@H](Cc1ccc(O)cc1)NC(=O)[C@@H](N)CO)C(=O)N[C@@H](CCC(=O)O)C(=O)N[C@@H](Cc1c[nH]cn1)C(=O)N[C@@H](Cc1ccccc1)C(=O)N[C@@H](CCCNC(=N)N)C(=O)N[C@@H](Cc1c[nH]c2ccccc12)C(=O)NCC(=O)N[C@@H](CCCCN)C(=O)N1CCC[C@H]1C(=O)N[C@H](C(=O)NCC(=O)N[C@@H](CCCCN)C(=O)N[C@@H](CCCCN)C(=O)N[C@@H](CCCNC(=N)N)C(=O)N[C@@H](CCCNC(=N)N)C(=O)N1CCC[C@H]1C(=O)N[C@H](C(=O)N[C@@H](CCCCN)C(=O)N[C@H](C(=O)N[C@@H](Cc1ccc(O)cc1)C(=O)N1CCC[C@H]1C(=O)N[C@@H](CC(N)=O)C(=O)N[C@@H](C)C(=O)NCC(=O)N[C@@H](CCC(=O)O)C(=O)N[C@@H](CC(N)=O)C(=O)N[C@@H](CCC(=O)O)C(=O)N[C@@H](CO)C(=O)N[C@@H](C)C(=O)N[C@@H](CCC(=O)O)C(=O)N[C@@H](C)C(=O)N[C@@H](Cc1ccccc1)C(=O)N1CCC[C@H]1C(=O)N[C@@H](CC(C)C)C(=O)N[C@@H](CCC(=O)O)C(=O)N[C@@H](Cc1ccccc1)C(=O)O)C(C)C)C(C)C)C(C)C [ACTH (1-39), Adrenocorticotropic hormone (ACTH) (1-39)] (H-SYSMEHFRWGKPVGKKRRPVKVYPNAGENESAEAFPLEF-OH; N-terminus and C-terminus assumed) | 9.3 | suitable |  |
| CC[C@H](C)[C@H](NC(=O)[C@H](CCC(=O)O)NC(=O)[C@H](CC(=O)O)NC(=O)[C@@H](NC(=O)[C@H](CS)NC(=O)[C@H](CC(C)C)NC(=O)[C@@H]1CCCN1C(=O)[C@H](CCCNC(=N)N)NC(=O)[C@H](Cc1c[nH]c2ccccc12)NC(=O)CNC(=O)[C@H](CS)NC(=O)[C@H](CC(C)C)NC(=O)[C@H](Cc1c[nH]c2ccccc12)NC(=O)[C@H](CCC(=O)O)NC(=O)[C@H](CC(=O)O)NC(=O)[C@@H](N)CC(=O)O)[C@@H](C)CC)C(=O)N[C@@H](CC(C)C)C(=O)N[C@@H](CCCNC(=N)N)C(=O)O [SA21] (H-DDEWLCGWRPLCIDEILR-OH; N-terminus and C-terminus assumed) |  |  | Kd (HSA [2]; TMR-labeled peptide, phosphate buffered saline, excitation 540 nm / fluorescence 580 nm): < 500 µM |
| (Arg) 10: SEQ ID NO: 21, 10 amino acid residues | 13 | suitable |  |
| (Glu) 10: SEQ ID NO: 18, 10 amino acid residues | 3.5 | suitable |  |
| (Gly) 10: SEQ ID NO: 20, 10 amino acid residues | 5.5 | suitable |  |
| (His)3: SEQ ID NO: 11, 3 amino acid residues (HHH; Synthetic sequence of (His)3) | 7 |  |  |
| (Lys)10: SEQ ID NO: 6, 10 amino acid residues (KKKKKKKKKK; Synthetic sequence of (Lys)10) | 11 |  |  |
| ACTH (1-41): SEQ ID NO: 17, 41 amino acid residues (GPSYSMEHFRWGKPVGKKRRPVKVYPNGAEDESAEAFPLEF; Synthetic sequence of ACTH (1-41)) | 8.3 | suitable |  |
| ACTH (2-16): SEQ ID NO: 10, 15 amino acid residues (YSMEHFRWGKPVGKK; Synthetic sequence of ACTH (2-16)) | 10 |  |  |
| ACTH (7-11): SEQ ID NO: 5, 5 amino acid residues (FRWGK; Synthetic sequence of ACTH (7-11)) | 11 |  |  |
| Blood coagulation factor XIII (Factor XIII): SEQ ID NO: 15, 25 amino acid residues (AVPPNNSNAAEDDLPTVELQGVVPR; Synthetic sequence of Factor XIII) | 3.9 |  |  |
| Brain natriuretic peptide [BNP] | 11 | suitable |  |
| C4a: SEQ ID NO: 23, 15 amino acid residues (NGFKSHALQLNNRQI; Synthetic sequence of C4a) [Peptide C4a] | 11 | suitable |  |
| C-peptide: SEQ ID NO: 31, 31 amino acid residues (EAEDLQVGQVELGGGPGAGSLQPLALEGSLQ; Synthetic sequence of C-peptide) | 3.5 | suitable |  |
| Colistin |  | suitable |  |
| Cp6: SEQ ID NO: 22, 8 amino acid residues (DIGEEFNQ; Synthetic sequence of Cp6) | 3.6 | suitable |  |
| Dynorphin A (YGGFLRRIRPKLK; Synthetic sequence of Dynorphin A) | 11.7 | suitable |  |
| Fibrinogen α: SEQ ID NO: 12, 25 amino acid residues (DEAGSEADHEGTHSTKRGHAKSRPV; Synthetic sequence of Fibrinogen alpha) | 6.3 |  |  |
| Glucagon (1-29): SEQ ID NO: 4, 29 amino acid residues | 6.8 |  |  |
| HSA 237-249 fragment: SEQ ID NO: 26, 13 amino acid residues (AWAVARLSQRFPK; Synthetic sequence of HSA237-249) | 12 | suitable |  |
| HSA 599-609 fragment: SEQ ID NO: 30, 11 amino acid residues (LVAASQAALGL; Synthetic sequence of HSA599-609) | 5.5 | suitable |  |
| ITIH4: SEQ ID NO: 28, 21 amino acid residues (NVHSAGAAGSRMNFRPGVLSS; Synthetic sequence of ITIH4) | 12 | suitable |  |
| Kininogen: SEQ ID NO: 7, 19 amino acid residues (HNLGHGHKHERDQGHGHQR; Synthetic sequence of Kininorgen) | 8.8 |  |  |
| TMR-labeled ACTH (1-24): ACTH (1-24) labeled with tetramethyl rhodamine (TMR) |  |  | band derived from the peptide in supernatant of hydrothermally-treated sample (HSA [3]; [4]): not observed |
| TMR-labeled ACTH (1-39): ACTH (1-39) labeled with tetramethyl rhodamine (TMR) (SYSMEHFRWGKPVGKKRRPVKVYPNAGENESAEAFPLEF; also: tetramethyl rhodamine (TMR) label, position not given here) |  |  | band derived from the peptide in supernatant of hydrothermally-treated sample (HSA [3]; [4]): observed |
| TMR-labeled HSA 599-609 fragment: HSA 599-609 fragment labeled with tetramethyl rhodamine (TMR) (LVAASQAALGL; also: tetramethyl rhodamine (TMR) label, position not given here) |  |  | band derived from the peptide in supernatant of hydrothermally-treated sample (HSA [3]; [5]): observed |
| TMR-labeled SA21: SA21 labeled with tetramethyl rhodamine; used as peptide for phase partition determination (DDEWLCGWRPLCIDEILR; cysteine pairing not given here; also: tetramethyl rhodamine (TMR) label, position not given here) |  |  | partition of peptide after hydrothermal treatment (HSA [3]; 160° C., serum-containing sample M, observed under visible light): transferred to the insoluble fraction; band derived from the peptide in supernatant of hydrothermally-treated sample (HSA [3]; [5]): light band |
| lqp: SEQ ID NO: 13, 12 amino acid residues (GKYFNAAEYHAQ; Synthetic sequence of lqp) | 6.8 |  |  |
| β-amyloid (1-40): SEQ ID NO: 1, 40 amino acid residues | 5.3 |  |  |
| β-amyloid (1-42): SEQ ID NO: 2, 42 amino acid residues | 5.3 |  |  |

Reference: patent publication US9995740B2, “Method of determining temperature and method of detecting a target peptide” (SYSMEX CORPORATION, priority 2015, dated 2018)
